Measured values from US20160032017A1 (ACADEMIA SINICA, published 2016).

What was measured:
[1] = target: T1, synthetic peptide P(29→46), AAGGSVPHPRCHCGAGRA (human); assay: ELISA on synthetic CεmX peptides
T1 construct: Residues are counted on the CεmX domain
T1 peptide: AAGGSVPHPRCHCGAGRA

[2] = target: T2, synthetic peptide P(33→46), SVPHPRCHCGAGRA (human); assay: ELISA on synthetic CεmX peptides
T2 construct: Residues are counted on the CεmX domain
T2 peptide: SVPHPRCHCGAGRA

[3] = target: T3, synthetic peptide P(27→40) (human); assay: ELISA on synthetic CεmX peptides
T3 construct: Residues are counted on the CεmX domain; also called Peptide M1′-8
T3 peptide: PRAAGGSVPHPRCH

[4] = target: T4, synthetic 22 amino acid peptide P(25→46), GLPRAAGGSVPHPRCHCGAGRA (human); assay: ELISA, plate coated with P(25→46)
T4 construct: Residues 25-46 are counted on the CεmX domain; The peptide was coated on the ELISA plates without a carrier; the OVA conjugate was used only for immunization; also called target antigen peptide
T4 peptide: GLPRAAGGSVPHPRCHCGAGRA
Protocol: To screen hybridomas for antibody secretion and to map the epitopes of secreted antibodies, the wells of microtiter plates were coated by incubating them overnight at 4° C. with 10 μg/mL of P(25→46) in 0.1 M carbonate buffer, pH 9.6. The wells were first blocked for 1 hour with 1% bovine serum albumin (BSA) in phosphate buffered saline (PBS), pH7.3, and then incubated for 1 hour at 37° C. at various dilutions with antisera or control antibodies. The wells were then washed and the ligand-bound antibodies detected by horse radish peroxidase (HRP)-conjugated goat anti-mouse IgG, Fcγ fragment specific (Jackson ImmunoResearch), or anti-human IgG, Fcγ fragment specific (Jackson ImmunoResearch) at a dilution of 1:10,000. To detect the ligand-bound antibodies, the wells were incubated for 1 hour at 37° C., followed by incubation with TMB (3,3′,5,5′-tetramethylbenzidine) substrate (Clinical Scientific Products).
One of the monoclonal antibodies specific for an epitope within the P(25→46), herein designated mAb 23B11, was subjected to epitope mapping studies. Several peptides representing parts of the consecutive P(25→46) were synthesized, including P(29→46) (SEQ ID NO:1); P(31→46) (SEQ ID NO:3), P(33→46) (SEQ ID NO:4), P(27→40) (SEQ ID NO:5), and […] (SEQ ID NO:6), as shown in FIG. 1A. […] The reactivity of mAb 23B11 with the synthesized peptides were analyzed by ELISA. […]

binding result [1]: binds | binding result [2]: binds | binding result [3]: binds | binding result [4]: binds
B1: monoclonal antibody mAb 23B11 (antibody, V domains shown)
VH: EVQLQQSGAELMKPGASVKISCKASGYTFSSYWIEWVYQRPGHGLEWIGEILPGSGSSNYNEKFEGKATFTADTSSNTAYMHLSSLTSEDSAVYYCARWDYYGGRGFDYWGQGTTLTAAA
VL: DIVMTQAAPSVPVTPGESVSISCRSSKSLLHSNGNIYLHWFLQRPGQSPQLLIYRMSNVASGVPDRFSGSGSGTVFTLRISRVEAEDVGVYYCMQNLEYPLTFGAGTKLELK
notes: Murine hybridoma antibody from BALB/c mice, detected with anti-mouse IgG
